Experimental data reported in PMC11328874 (2024).

B1: HA-tagged B55α (HA-B55α), wild type [human] / FLAG-Eya3 (human), wild type [human] (parent complex)
chain 1: MAGAGGGNDIQWCFSQVKGAVDDDVAEADIISTVEFNHSGELLATGDKGGRVVIFQQEQENKIQSHSRGEYNVYSTFQSHEPEFDYLKSLEIEEKINKIRWLPQKNAAQFLLSTNDKTIKLWKISERDKRPEGYNLKEEDGRYRDPTTVTTLRVPVFRPMDLMVEASPRRIFANAHTYHINSISINSDYETYLSADDLRINLWHLEITDRSFNIVDIKPANMEELTEVITAAEFHPNSCNTFVYSSSKGTIRLCDMRASALCDRHSKLFEEPEDPSNRSFFSEIISSISDVKFSHSGRYMMTRDYLSVKIWDLNMENRPVETYQVHEYLRSKLCSLYENDCIFDKFECCWNGSDSVVMTGSYNNFFRMFDRNTKRDITLEASRENNKPRTVLKPRKVCASGKRKKDEISVDSLDFNKKILHTAWHPKENIIAVATTNNLYIFQDKVN
chain 2: MEEEQDLPEQPVKKAKMQESGEQTISQVSNPDVSDQKPETSSLASNLPMSEEIMTCTDYIPRSSNDYTSQMYSAKPYAHILSVPVSETAYPGQTQYQTLQQTQPYAVYPQATQTYGLPPFGALWPGMKPESGLIQTPSPSQHSVLTCTTGLTTSQPSPAHYSYPIQASSTNASLISTSSTIANIPAAAVASISNQDYPTYTILGQNQYQACYPSSSFGVTGQTNSDAESTTLAATTYQSEKPSVMAPAPAAQRLSSGDPSTSPSLSQTTPSKDTDDQSRKNMTSKNRGKRKADATSSQDSELERVFLWDLDETIIIFHSLLTGSYAQKYGKDPTVVIGSGLTMEEMIFEVADTHLFFNDLEECDQVHVEDVASDDNGQDLSNYSFSTDGFSGSGGSGSHGSSVGVQGGVDWMRKLAFRYRKVREIYDKHKSNVGGLLSPQRKEALQRLRAEIEVLTDSWLGTALKSLLLIQSRKNCVNVLITTTQLVPALAKVLLYGLGEIFPIENIYSATKIGKESCFERIVSRFGKKVTYVVIGDGRDEEIAAKQHNMPFWRITNHGDLVSLHQALELDFL

Variants of: B1
Test: FLAG co-IP followed by Western blot, band quantification; cotransfected HEK cells; three biological replicates; parent: 1; read off a plot

Question: For chain 1 D197K, which ratio to parent is on record?
Answer: ~0.58

Question: With chain 1 K48E as the variant, how does the ratio to parent read?
Answer: ~1.1

Question: With chain 1 E93A, chain 1 E94A, chain 1 K95A as the variant, how does the ratio to parent read?
Answer: ~0.4

Question: With chain 1 K345E as the variant, how does the ratio to parent read?
Answer: ~0.36

Question: How did the ratio to parent turn out when chain 1 Y178A, chain 1 H179A was run?
Answer: ~0.28

Question: For chain 1 E27R, which ratio to parent is on record?
Answer: ~1.2
